Test results published in PMC8890709.

What was measured:
[1] = target: GmALMT12/QUAC1 (aluminum-activated malate transporter 12 / quick anion channel 1 from Glycine max) (Glycine max (soybean)); assay: cryo-EM structure
[2] = target: GmALMT12/QUAC1 cytoplasmic helical domain (CHD, residues 221 to 537), wild type (Glycine max (soybean)); assay: SEC

## GmALMT12/QUAC1 (aluminum-activated malate transporter 12 / quick anion channel 1 from Glycine max) (natural protein)
[1]
  stoichiometry N: 2

## GmALMT12/QUAC1 cytoplasmic helical domain (CHD, residues 221 to 537), wild type (domain or fragment)
[2]
  stoichiometry N: 2
